Literature values, collected in article doi:10.1101/2025.05.26.656075.

Molecular target: neonatal Fc receptor (FcRn), biotinylated (UniProt P55899+P61769)
Experiment: not stated
Conditions: cited from earlier work

Substance: MFc4 (IgG4 monomeric Fc of Shan et al.) L351F;S354E;T366R;P395K;F405R;Y407E;L428M;L432C;H433S;N434Y;Y436L;T437C;delQ438 (as printed)
- KD (pH 6.0): 5 nM

Substance: native dimeric human IgG1 / IgG1 Fc (literature values)
- KD (pH 6.0): 2,140 nM
- KD (pH low pH (number not given)): 1,377 nM
- KD (pH neutral pH (number not given)): ∼88,000 nM
